In patent publication US20050106647A1 one finds mean fluorescence (M) data, which are given here for two substances.

Read-outs that look alike come from different tables or passages of the source.

In experiment [1] the target is PA-BODIPY conjugate (Bacillus anthracis protective antigen conjugated to BODIPY FL) (Bacillus anthracis) (UniProt P13423).
For experiment [2] the target is unchanged. This is another data set of the same source.

Sequence of PA-BODIPY conjugate (Bacillus anthracis protective antigen conjugated to BODIPY FL) (Bacillus anthracis) (P13423 30-764 limits assumed): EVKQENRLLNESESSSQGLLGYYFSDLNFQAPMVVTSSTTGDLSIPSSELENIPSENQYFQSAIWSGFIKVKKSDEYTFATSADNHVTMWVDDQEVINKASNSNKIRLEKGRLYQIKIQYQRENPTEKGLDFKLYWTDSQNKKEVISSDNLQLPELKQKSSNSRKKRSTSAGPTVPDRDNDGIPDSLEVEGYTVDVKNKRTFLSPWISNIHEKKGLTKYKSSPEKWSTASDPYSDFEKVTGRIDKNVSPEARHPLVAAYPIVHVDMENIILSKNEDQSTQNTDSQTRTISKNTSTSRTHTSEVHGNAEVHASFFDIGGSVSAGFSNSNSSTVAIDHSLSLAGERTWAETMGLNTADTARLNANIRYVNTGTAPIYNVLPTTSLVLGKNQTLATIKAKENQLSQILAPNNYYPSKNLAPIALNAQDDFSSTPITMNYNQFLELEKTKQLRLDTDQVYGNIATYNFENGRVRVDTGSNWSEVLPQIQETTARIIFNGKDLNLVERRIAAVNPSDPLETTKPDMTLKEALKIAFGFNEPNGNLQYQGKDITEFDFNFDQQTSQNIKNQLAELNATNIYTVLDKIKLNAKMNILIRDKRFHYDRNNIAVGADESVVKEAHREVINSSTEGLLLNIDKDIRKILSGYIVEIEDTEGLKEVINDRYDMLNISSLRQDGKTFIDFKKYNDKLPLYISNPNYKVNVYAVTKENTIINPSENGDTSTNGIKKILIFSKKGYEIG
Sequence of NlpA-[Dig scFv] (26-10 anti-digoxin/digoxigenin scFv) fusion anchored on the E. coli inner membrane (P04846 whole entry, looked up, the tested form may be a part): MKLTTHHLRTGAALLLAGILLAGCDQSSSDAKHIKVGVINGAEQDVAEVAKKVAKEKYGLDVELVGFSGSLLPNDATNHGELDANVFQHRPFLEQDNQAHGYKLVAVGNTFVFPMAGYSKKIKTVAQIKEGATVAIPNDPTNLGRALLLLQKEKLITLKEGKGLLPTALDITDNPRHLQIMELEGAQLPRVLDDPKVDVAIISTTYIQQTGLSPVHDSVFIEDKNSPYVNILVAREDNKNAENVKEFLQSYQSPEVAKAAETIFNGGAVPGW
Sequence of 26-10 anti-digoxin/digoxigenin scFv-g3p fusion (pAK200) (P69168 268-424): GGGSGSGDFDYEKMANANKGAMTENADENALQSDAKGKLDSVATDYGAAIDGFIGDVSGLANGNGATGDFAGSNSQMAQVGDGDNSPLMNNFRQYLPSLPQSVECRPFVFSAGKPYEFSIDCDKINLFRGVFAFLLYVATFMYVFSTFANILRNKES

For the substance “26-10 anti-digoxin/digoxigenin scFv-g3p fusion (pAK200) (from UniProt P69168 268-424)”, the mean fluorescence (M) in experiment [1] was found to be 7.25. “NlpA-[Dig scFv] (26-10 anti-digoxin/digoxigenin scFv) fusion anchored on the E. coli inner membrane (from UniProt P04846 24-29)”: the results for the mean fluorescence (M) in experiment [2] and in experiment [1] were 2.97 and 4.48, respectively.
